Tested on: MS2 coat protein
Assay: apparent KD of MS2 coat protein; designed switch direction (-1 OFF switch, 1 ON switch): 1; higher = weaker reporter binding
Procedure, shortened: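 Apparent KD, taken as the median over clusters for each design, was obtained by curve-fitting normalised cluster fluorescence. Designed RNA switches had been transcribed on Illumina chips by stalled E. coli RNA polymerase and titrated with SNAP-549-labelled MS2 coat protein, doubling from 0.7 or 1.5 nM to 3 µM.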

[1] = Eterna round: R95, input ligand: FMN 200 uM
[2] = Eterna round: R95, input ligand: microRNA oligo, concentration not stated
[3] = Eterna round: R95, input ligand: none
[4] = input ligand: microRNA oligo, concentration not stated

| Sequence | apparent KD of MS2 coat protein [1] [nM] | apparent KD of MS2 coat protein [2] [nM] | apparent KD of MS2 coat protein [3] [nM] | apparent KD of MS2 coat protein (input ligand: FMN 200 uM) [nM] | apparent KD of MS2 coat protein [4] [nM] | apparent KD of MS2 coat protein (input ligand: none) [nM] |
| --- | --- | --- | --- | --- | --- | --- |
| GUGCUACAUGAGGAUCACCCAUGUACAAAUGUACGAGGAUAUGCAUGGGCUAAUGCUGGUGCAGAAGGCGUAGCGC [Pin2Pin #7] (puzzle: Same State 1) | 18 | 33.9 | 41.5 |  |  |  |
| CCAACGUACAAUUUAGAUCUACAUGAGGAUCACCCAUGUACGGAGGAUAUCAGCUCGAUUAGAGCUGAGAAGGCCGAAUUAAUU [SSNG3/2-A2] (Eterna round: R96, puzzle: Same State NG 3) |  |  |  | 65.7 | 119 | 430 |
| GAGCCAGUCCGAGGAUAUUCACAUGAGGAUCACCCAUGUAGGCUCAGAAAAGAAAAGGAGCCUUGGGAGAAGGCGGACUGGCUC [Xeonanisa<<8] (Eterna round: R96, puzzle: Same State NG 2) |  |  |  | 6.35 | 9.87 | 13.3 |
| ACAUGAGGAUCACCCAUGUAUUUAUAUGAAUCUUAAGUUACGUAGGAUAUCGUCUAUACUAUCAACGAGAAGGACGAACUCAAA [JR_SSNG3_Sub069] (Eterna round: R96, puzzle: Same State NG 3) |  |  |  | 9.51 | 15.3 | 17.4 |
| AAAGAAAACGCAGGAUAUCCCGGAAAAGAUCCGGGAGAAGGGUGACCGGUACAUGAGGAUCACCCAUGUAGAGCAAAGGCUCAA [Ceonbeti] (Eterna round: R96, puzzle: Same State NG 1) |  |  |  | 232 | 133 | 128 |
| UGUAAACAUGAGGAUCACCCAUGUAAUAUAAUGGGAGGAUAUCUGAAUUAAUUAAAUUAAGGAGAAGGCCUAAUGG [Mat - Same State 1 - Mod of Eli - D48] (puzzle: Same State 1) | 79.8 | 995 | 563 |  |  |  |
| AGCCUGCCGCAAGGAUAUGAAGCUUUCGCUCCGUCAGAAGGUGCACAUGAGGAUCACCCAUGUAUGCAGGCCAAGAAAUAAAAC [Inbilerate] (Eterna round: R96, puzzle: Same State NG 1) |  |  |  | 20.1 | 33.9 | 52.9 |
| AUAAACAGGCUAGGAUAUCCGGAAACUACAGGGCACGACCCUGUGGACAUGAGGAUCACCCAUGUGGAGAAGGAGCCACAUGAA [Edlatibi] (Eterna round: R96, puzzle: Same State NG 2) |  |  |  | 15.1 | 108 | 152 |
| UUAAUGAAGUAAGGAUAUACAUGAGGAUCACUCGUAGAAGGUACUAUACAUGAGGAUCACCCAUGUUCCGGUCCGUAGACUGGA [JL SSNG1 1.02] (Eterna round: R96, puzzle: Same State NG 1) |  |  |  | 1600 | 236 | 841 |
| GCCAUCCAGUGAGGAUAUGGCACCGUUUCGGUGCCAGAAGGCAUGUCAAUUGACAUGAGGAUCACCCAUGUAUUAUGGAUGGCA [JL Fiskers NG1ss - 33 mod 1] (Eterna round: R96, puzzle: Same State NG 1) |  |  |  | 96.2 | 423 | 1110 |
| AGUCCAGCAAGAGCUGGACAAAAGCAUGUACAUGAGGAUCACCCAUGUUCAUGUACAAGCUUUUUGCAAGUCAAAAG [Mat - hsa-mir-208a - Mod of JL - 73] (puzzle: Sensor for hsa-mir-208a) | 321 | 23.9 | 416 |  |  |  |
| UGGCUGGUGCUAGGAUAUGCAUGAGGCCUCCUCGUAGAAGGAGCACGACAUGAGGAUCACCCAUGUGGCCGUCCGUAGACGGCU [salish99_SSNG1_r04_013] (Eterna round: R96, puzzle: Same State NG 1) |  |  |  | 62.5 | 35.9 | 61.2 |
| GCGGAAUGGUGUGACAUGAGGAUCACCCAUGUAACCUCAUGUAAGGAUAUCGGGAAGAAGAAAACCGAGAAGGUACGGUGACGC [AK SSNG3-V2-28] (Eterna round: R96, puzzle: Same State NG 3) |  |  |  | 197 | 145 | 165 |
| UGCUUCGUGUAAGGAUAUGCAGCCGUUUCGGCUGCAGAAGGUACUAUAAUACAUGAGGAUCACCCAUGUCUCUCGCUUUGCGGG [salish99_SSng1_r04_304] (Eterna round: R96, puzzle: Same State NG 1) |  |  |  |  | 43.4 |  |
| GCGGAGAGGUAAGGAUAUUCAUGGCAUAGACAUGAGGAUCACCCAUGUAGGAGACGAAUUAGAAGGAAGAAGGUACCGGGACGC [AK SSNG2-V2-18.1] (Eterna round: R96, puzzle: Same State NG 2) |  |  |  | 158 | 113 | 197 |
| UAUUUAAUCGUAGGAUAUAGAGUGAAAUUUGGACUAGAAGGACGUAACAUGAGGAUCACCCAUGUGGUAAGUGGGACACAGUGU [JR_SSNG1_Sub038] (Eterna round: R96, puzzle: Same State NG 1) |  |  |  | 150 | 66.8 | 90.5 |

| Sequence | apparent KD of MS2 coat protein [1] [nM] | apparent KD of MS2 coat protein [2] [nM] | apparent KD of MS2 coat protein [3] [nM] | apparent KD of MS2 coat protein (input ligand: FMN 200 uM) [nM] | apparent KD of MS2 coat protein [4] [nM] | apparent KD of MS2 coat protein (input ligand: none) [nM] |
| --- | --- | --- | --- | --- | --- | --- |
| GUGGUCAGACAUGAGGAUCACCCAUGUGGAAUAAAUAAGGGAGAGGAUAUAUAAUAUAGGAUAUAAUAGAAGGCUCGGUUGGUG (Eterna round: R96, puzzle: Same State NG 3) |  |  |  |  | 89.5 |  |
| GUGGUGAAUUAAGGAUAUCGAGUCUAGAUGUUAAACAUGAGGAUCACCCAUGUGGGUUGCGGUGUCGAGAAGGUGAUUUACGGG [salish99_SSNG2_r04_509] (Eterna round: R96, puzzle: Same State NG 2) |  |  |  | 82.2 | 79.6 | 104 |
| AUCAUUAAUGCAGGAUAUGAUUAACAUGAGGAUCACCCAUGUGGUGUUGUGAGUAAGGAGAGUGAUCAGAAGGGCAUUUUUUUU [JMF's solution 35] (Eterna round: R96, puzzle: Same State NG 2) |  |  |  | 699 | 292 | 469 |
| AGAGAACAUGAGGAUCACCCAUGUGGGAGAUGCAUAGGAUAUAGGAGAGAGAGCGAGGAACUAGAAGGAUGAUGGA [JR_SS1_Sub081] (puzzle: Same State 1) | 79.7 | 63.7 | 191 |  |  |  |
| GAGUGGCAGUAAGGAUAUAUAAUGAUAAUCACAGUAGAAGGUACUGACAUGAGGAUCACCCAUGUAGGACUAAACCAGAGAGAG [Parity 43 - Jieux - Same State NG 1] (Eterna round: R96, puzzle: Same State NG 1) |  |  |  | 33.8 | 20.2 | 20.1 |
| UAAAUACAUGAGGAUCACCCAUGUCAAAAGACAUGAGGAUAUGUACAGUCUUCGGUCUGUACAGAAGGCAUGAAUA [salish99_ss1_r3_097] (Eterna round: R96, puzzle: Same State 1) |  |  |  | 52.1 | 370 | 461 |
| GCUACAUCGAGCGAGGAUAUGCGGCGUAUAACAUGAGGAUCACCCAUGUCCUUCGAAUCGAGUACGCAGAAGGCGCUACGGUAGC [Big Heel] (puzzle: Same State 2) | 77.6 | 277 | 551 |  |  |  |
| UGCUAGUGGGUAGGAUAUUUAGGAUAUGGGAAAGACUAAGUCUGUAGGUCACCUAACCCAGAAGGAGAGAAGGACCAUUCAGCU [pwkr ssNG2 2FMN + F9.27] (Eterna round: R96, puzzle: Same State NG 2) |  |  |  | 30.3 | 4.33 | 28.5 |
| AUUUAACAAGCUUUUUGCUCGUCUUAUAAACAUGAGGAUCACCCAUGUAAUAGCGUGAGAGUAAAUAAUUUAAUAAU [JMF 98] (puzzle: Sensor for hsa-mir-208a) | 12.9 | 53.2 |  |  |  |  |
| GGUCCAGCCUGAGCUGGACAAAAGCAUGUACAUGAGGAUCACCCAUGUUCAUGUACAAGCUUUUUGCUCGUCUUAAU [salish99_208a_r3_036] (puzzle: Sensor for hsa-mir-208a) | 525 | 15 | 492 |  |  |  |
| GAGGGACAGACCAACAUGAGGAUCACCCAUGUCCUCGCAGUUCAGGAUAUCCGGAGGUAGACGAAGGAGAAGGGAAGGUGAACC [AK SSNG3-V2-36] (Eterna round: R96, puzzle: Same State NG 3) |  |  |  | 266 | 382 | 207 |
| UUAGUCAUGUAAGGAUAUGCAGCCGUUUCGGCUGCAGAAGGUACUAUAAUUACAUGAGGAUCACCCAUGUUAUAAAAUUUAUAU [JL SSNG1 1.24] (Eterna round: R96, puzzle: Same State NG 1) |  |  |  | 19.9 | 25 | 36.6 |
| UUGAUUAGAAAUUAACAUGAGGAUCACCCAUGUAUUGGAUCAGAGGAUAUGCAUGUUUGAUUGUAGCAGAAGGCUGAUUGUGGA [JR_SSNG3_Sub028] (Eterna round: R96, puzzle: Same State NG 3) |  |  |  | 43.2 | 29.5 | 46.5 |
| GGAUCAUGACGAGGAUAUGGUACAUGAGGAUCACCCAUGUAUGUACCACGACGGAAACGUCGAAUCCAGAAGGCGUCAUGAUCG [Mat - Same State NG 2 - JL mod - D39] (Eterna round: R96, puzzle: Same State NG 2) |  |  |  | 25.3 | 70.1 | 120 |
| GCCGCACAUGAGGAUCACCCAUGUAAUUACAUGGGAGGAUAUCAGUGCUCGAAAGAGCACUGAGAAGGCCUGAGGC [SS1 - Omei A v1] (puzzle: Same State 1) | 296 | 32.2 | 28.8 |  |  |  |

Reference: the supplement of paper PMC9170038
